Measurements published in patent US20210107981A1 (SUTRO BIOPHARMA, published 2021).

Tests used:
[1] = target: T1, Human PD-1 (ACROBiosystems, Inc., Catalog No. PD1-H5221) (human, UniProt Q15116 25-167); test: SPR (Biacore), scFv captured on anti-FLAG, PD-1 as analyte
T1 construct: Bought recombinant protein; also called huPD1-His; PD-1-his; not shown: His tag of the bought protein (huPD1-His)
Method: Monoclonal anti-FLAG M2 IgG (Sigma-Aldrich #F9291) was immobilized onto a CMS chip (GE Life Sciences) using amine coupling chemistry (from Amine Coupling Kit, GE Life Sciences). The immobilization steps were carried out at a flow rate of 25 μl/min in 1×HBS-EP+ buffer (GE Life Sciences; 10× Stock diluted before use). The sensor surfaces were activated for 7 min with a mixture of NHS (0.05 M) and EDC (0.2 M). The Anti-FLAG M2 IgG was injected over all 4 flow cells at a concentration of 25 μg/ml in 10 mM sodium acetate, pH 4.5, for 7 min. Ethanolamine (1 M, pH 8.5) was injected for 7 min to block any remaining activated groups.
Off-rate and kinetic binding experiments were performed at 25° C. using 1×HBS-EP+ buffer. Test and control antibodies were injected over the Anti-FLAG surface at concentrations of 5-10 μg/mL for 12 seconds at a flow rate of 10 μl/min on flow cells 2, 3 and 4, followed by a buffer wash for 30 seconds at the same flow rate. Kinetic characterization of antibody samples was carried out with a single concentration of antigen (for off-rate ranking) or a 1:2 dilution series of antigen (for kinetic characterization) and 1 injection of 0 nM antigen (i.e., buffer alone). After capturing ligand (anti-PD-1 antibody) on the anti-FLAG surface, the analyte (huPD1-His) was bound at 50, 25, 12.5, 6.25 and 0 nM for 180 seconds, followed by a 600 second dissociation phase at a flow rate of 50 μl/min. Between each ligand capture and analyte binding cycle, regeneration was carried out using 2 injections of 10 mM glycine pH 2.0 for 30 seconds at 30 μL/min, followed by a 30 second buffer wash step.
The data was fit with the Biacore T200 Evaluation software, using a 1:1 Langmuir binding model. KD (affinity, nM) was determined as a ratio of the kinetic rate constants calculated from the fits of the association and dissociation phases.

[2] = target: T1, Human PD-1 (ACROBiosystems, Inc., …); test: SPR (Biacore), IgG as ligand, PD-1-his as sample
[3] = target: T2, human PD-1 expressed on the cell surface (CHO-PD1 cells) (human, UniProt Q15116 25-288); test: FACS cell binding on CHO cells expressing human PD-1
T2 construct: Also used here as the target for native PD-1 on human PBMC / T cells in the functional (IFN-g) assays; also called CHO cell line overexpressing human PD-1; Cell-Surface Human PD-1 antigen
T2 sequence (Q15116 25-288 limits assumed): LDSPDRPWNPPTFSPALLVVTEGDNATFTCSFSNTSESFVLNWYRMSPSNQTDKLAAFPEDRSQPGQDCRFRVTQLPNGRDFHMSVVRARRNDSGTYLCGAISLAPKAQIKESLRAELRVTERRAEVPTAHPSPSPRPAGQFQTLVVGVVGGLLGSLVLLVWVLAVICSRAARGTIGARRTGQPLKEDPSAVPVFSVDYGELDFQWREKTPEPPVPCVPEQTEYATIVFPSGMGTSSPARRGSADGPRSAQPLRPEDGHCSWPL
Method: (§1) A mix of parental CHO cells and CHO-PD1 cells was prepared as follows: Parental CHO cells were washed 2× in PBS then incubated in PBS containing 1 μM CellTrace™ Oregon Green488® (Life Technologies) at 37° C. for 30 minutes. Cells were then washed 2× with RPMI w/10% fetal calf serum (FCS), washed 2× with FACS buffer (PBS w/2% FCS), suspended thoroughly in ice-cold FACS buffer at a final concentration of 2×10⁶ cells/mL and kept on ice. CHO-PD1 cells were similarly washed with FACS buffer and kept on ice at 2×10⁶ cells/mL. Parental CHO cells and CHO-PD1 cells were then mixed to obtain a 1:1 cell suspension and seeded at 100 μL per well on 96 well polypropylene plates. Plates were spun at 1500 rpm for 5 minutes and cell pellets were suspended in 50 μL FACS buffer containing 6-12 point dilutions of anti-PD-1 variants starting from concentrations of −100-200 nM antibody, dispensed using BioMek FX (Beckman Coulter). Cells were then incubated on ice for 1 hr, washed with FACS buffer and incubated for 1 hr on ice with 50 μL FACS buffer containing 2.5 μg/ml R-phycoerythrin-conjugated goat anti-Human IgG (Jackson ImmunoResearch) or AF647-conjugated goat anti-mouse IgG (Life Technologies) dispensed using BioMek FX (Beckman Coulter). Cells were then washed 2× with FACS buffer and fixed for 10 minutes in 200 μL PBS with 2% paraformaldehyde (PFA) prior to fluorescence detection. Samples were acquired using a Becton Dickinson LSRII FACS. Mean Fluorescence Intensity of PD-1 antibody binding was analyzed using FlowJo® software (Tree Star, Inc.).
The affinity of the IgGs for cell-surface expressed human PD-1 were measured according to Example 6, above.

[4] = target: T3, cynomolgus PD-1 expressed on CHO cells (cynomolgus, UniProt B0LAJ3 25-288); test: FACS cell binding on CHO cells expressing cynomolgus PD-1
T3 construct: also called Cell-Surface Cynomolgus PD-1 antigen
T3 sequence (B0LAJ3 entry or part of it limits assumed, form in doubt): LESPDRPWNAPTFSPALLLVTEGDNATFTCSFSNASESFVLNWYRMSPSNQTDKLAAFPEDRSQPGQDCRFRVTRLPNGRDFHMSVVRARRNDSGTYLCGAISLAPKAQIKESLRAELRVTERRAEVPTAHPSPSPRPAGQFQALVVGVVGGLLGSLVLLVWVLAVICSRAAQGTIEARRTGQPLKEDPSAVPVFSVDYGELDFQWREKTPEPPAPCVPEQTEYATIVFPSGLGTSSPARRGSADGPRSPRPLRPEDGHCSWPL
Method: as §1
The affinity of the IgGs for cell-surface expressed cynomolgus PD-1 were measured according to Example 6, above.

T1 sequence (Q15116 25-167 limits assumed): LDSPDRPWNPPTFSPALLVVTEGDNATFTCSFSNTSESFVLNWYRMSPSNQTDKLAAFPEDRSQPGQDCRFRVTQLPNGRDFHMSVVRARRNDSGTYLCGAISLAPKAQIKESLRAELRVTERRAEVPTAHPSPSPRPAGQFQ

B1: m4B10 scFv (scFv)
scFv: MEVKLVESGGGLVKPGGSLKLSCAASGFTFSTYGMSWVRQTPEKRLQWVATISGGGSNTYYSDSVKGRFTISRDNAKNNLYLQMSSLRSEDTALYYCARQRDSAWFASWGQGTLVTVSAGGGGSGGGGSGGGGSDIVLTQSPASLAVSLGQRATISCRASENVDDYGVSFMNWFQQKPGQPPKLLIYPASNQGSGVPARFSGSGSGTDFSLNIHPMEEDDTAMYFCQQSKEVPWTFGGGTKLEIKGSGDYKDDDDKGSGHHHHHH
notes: Mouse single-chain antibody, whole chain with FlagHis tag
Kd [1]: 5.14 nM | koff [1]: 0.000417 s⁻¹ | kon [1]: 81200 M⁻¹ s⁻¹

B2: h4B10-1 (VH3-15-Vκ3-11) scFv (scFv)
scFv: MEVQLVESGGGLVKPGGSLRLSCAASGFTFSTYGMSWVRQAPGKGLEWVATISGGGSNTYYSDSVKGRFTISRDDSKNTLYLQMNSLKTEDTAVYYCARQRDSAWFASWGQGTLVTVSSGGGGSGGGGSGGGGSEIVLTQSPATLSLSPGERATLSCRASENVDDYGVSFMNWYQQKPGQAPRLLIYPASNQGSGIPARFSGSGSGTDFTLTISSLEPEDFAVYYCQQSKEVPWTFGQGTKVEIKGSGDYKDDDDKGSGHHHHHH
notes: Whole scFv chain with FlagHis tag
Kd [1]: 2.47 nM | koff [1]: 0.00299 s⁻¹ | kon [1]: 1.21e+06 M⁻¹ s⁻¹

B3: h4B10-2 (VH3-15-Vκ3-20) scFv (scFv)
scFv: MEVQLVESGGGLVKPGGSLRLSCAASGFTFSTYGMSWVRQAPGKGLEWVATISGGGSNTYYSDSVKGRFTISRDDSKNTLYLQMNSLKTEDTAVYYCARQRDSAWFASWGQGTLVTVSSGGGGSGGGGSGGGGSEIVLTQSPGTLSLSPGERATLSCRASENVDDYGVSFMNWYQQKPGQAPRLLIYPASNQGSGIPDRFSGSGSGTDFTLTISRLEPEDFAVYYCQQSKEVPWTFGQGTKVEIKGSGDYKDDDDKGSGHHHHHH
notes: as for B2
Kd [1]: 2.79 nM | koff [1]: 0.00324 s⁻¹ | kon [1]: 1.16e+06 M⁻¹ s⁻¹

B4: h1E9-1 (VH3-21-Vκ1-9) scFv (scFv)
scFv: MEVQLVESGGGLVKPGGSLRLSCAASGFTFSTFGMSWVRQAPGKGLEWVSTISGGGSDTYYPDSVQGRFTISRDNAKNSLYLQMNSLRAEDTAVYYCARQGYDVYSWFAYWGQGTLVTVSSGGGGSGGGGSGGGGSDIQLTQSPSFLSASVGDRVTITCRASESVDNSGISFMSWYQQKPGKAPKLLIYTASNQGSGVPSRFSGSGSGTEFTLTISSLQPEDFATYYCQQSKEVPWTFGQGTKVEIKGSGDYKDDDDKGSGHHHHHH
notes: as for B2
Kd [1]: 2.58 nM | koff [1]: 0.000468 s⁻¹ | kon [1]: 182000 M⁻¹ s⁻¹

B5: h1E9-4 (VH3-7-Vκ1-9) scFv (scFv)
scFv: MEVQLVESGGGLVQPGGSLRLSCAASGFTFSTFGMSWVRQAPGKGLEWVATISGGGSDTYYPDSVQGRFTISRDNAKNSLYLQMNSLRAEDTAVYYCARQGYDVYSWFAYWGQGTLVTVSSGGGGSGGGGSGGGGSDIQLTQSPSFLSASVGDRVTITCRASESVDNSGISFMSWYQQKPGKAPKLLIYTASNQGSGVPSRFSGSGSGTEFTLTISSLQPEDFATYYCQQSKEVPWTFGQGTKVEIKGSGDYKDDDDKGSGHHHHHH
notes: as for B2
Kd [1]: 3.66 nM | koff [1]: 0.000679 s⁻¹ | kon [1]: 185000 M⁻¹ s⁻¹

B6: h1E9-2 (VH3-21-Vκ3-11) scFv (scFv)
scFv: MEVQLVESGGGLVKPGGSLRLSCAASGFTFSTFGMSWVRQAPGKGLEWVSTISGGGSDTYYPDSVQGRFTISRDNAKNSLYLQMNSLRAEDTAVYYCARQGYDVYSWFAYWGQGTLVTVSSGGGGSGGGGSGGGGSEIVLTQSPATLSLSPGERATLSCRASESVDNSGISFMSWYQQKPGQAPRLLIYTASNQGSGIPARFSGSGSGTDFTLTISSLEPEDFAVYYCQQSKEVPWTFGQGTKVEIKGSGDYKDDDDKGSGHHHHHH
notes: as for B2
Kd [1]: 38.5 nM | koff [1]: 0.00182 s⁻¹ | kon [1]: 47400 M⁻¹ s⁻¹

B7: h1E9-5 (VH3-7-Vκ3-11) scFv (scFv)
scFv: MEVQLVESGGGLVQPGGSLRLSCAASGFTFSTFGMSWVRQAPGKGLEWVATISGGGSDTYYPDSVQGRFTISRDNAKNSLYLQMNSLRAEDTAVYYCARQGYDVYSWFAYWGQGTLVTVSSGGGGSGGGGSGGGGSEIVLTQSPATLSLSPGERATLSCRASESVDNSGISFMSWYQQKPGQAPRLLIYTASNQGSGIPARFSGSGSGTDFTLTISSLEPEDFAVYYCQQSKEVPWTFGQGTKVEIKGSGDYKDDDDKGSGHHHHHH
notes: as for B2
Kd [1]: 3.15 nM | koff [1]: 0.000628 s⁻¹ | kon [1]: 200000 M⁻¹ s⁻¹

B8: m1B10 scFv (scFv)
scFv: MSDVQLQESGPGLVKPSQSLSLTCTVTGHSITSDYAWNWIRQFPGNKLEWMGYISYSGRTSYNPSLTSRISITRDTSKNQFFLQLNSVTTEDTATYYCARGYALDYWGQGTSVTVSSGGGGSGGGGSGGGGSQIVLSQSPAILSASPGEKVTMTCRTSSSVNYMHWFQQKPGSSPKPWIYATSKLASGVPARFSGSGSGTSYSLTISRVEAEDAATYFCQQWISDPWTFGGGTKLEIKGSGDYKDDDDKGSGHHHHHH
notes: as for B1
Kd [1]: 12.8 nM | koff [1]: 0.00239 s⁻¹ | kon [1]: 186000 M⁻¹ s⁻¹

B9: h4B10-3 (VH3-15-Vκ4-1) scFv (scFv)
scFv: MEVQLVESGGGLVKPGGSLRLSCAASGFTFSTYGMSWVRQAPGKGLEWVATISGGGSNTYYSDSVKGRFTISRDDSKNTLYLQMNSLKTEDTAVYYCARQRDSAWFASWGQGTLVTVSSGGGGSGGGGSGGGGSDIVMTQSPDSLAVSLGERATINCRASENVDDYGVSFMNWYQQKPGQPPKLLIYPASNQGSGVPDRFSGSGSGTDFTLTISSLQAEDVAVYYCQQSKEVPWTFGGGTKLEIKGSGDYKDDDDKGSGHHHHHH
notes: as for B2
Kd [1]: 1.2 nM | koff [1]: 0.000617 s⁻¹ | kon [1]: 513000 M⁻¹ s⁻¹

B10: h1E9-HC3 × h1E9-LC1 IgG (antibody)
heavy: not shown
light: MDIQLTQSPSSLSASVGDRVTITCRASESVDNSGISFMSWYQQKPGKAPKLLIYTASNQGSGVPSRFSGSGSGTDFTFTISSLQPEDIATYYCQQSKEVPWTFGQGTKVEIKRTVAAPSVFIFPPSDEQLKSGTASVVCLLNNFYPREAKVQWKVDNALQSGNSQESVTEQDSKDSTYSLSSTLTLSKADYEKHKVYACEVTHQGLSSPVTKSFNRGEC
notes: Humanized IgG; heavy chain with C-terminal FlagHis tag
Kd [2]: 3.6 nM | Kd [3]: 8 nM | Kd [4]: 4 nM

B11: h1E9-HC1 × h1E9-LC1 IgG (antibody)
heavy: not shown
light: MDIQLTQSPSSLSASVGDRVTITCRASESVDNSGISFMSWYQQKPGKAPKLLIYTASNQGSGVPSRFSGSGSGTDFTFTISSLQPEDIATYYCQQSKEVPWTFGQGTKVEIKRTVAAPSVFIFPPSDEQLKSGTASVVCLLNNFYPREAKVQWKVDNALQSGNSQESVTEQDSKDSTYSLSSTLTLSKADYEKHKVYACEVTHQGLSSPVTKSFNRGEC
notes: as for B10
Kd [2]: 5.08 nM | Kd [3]: 6 nM | Kd [4]: 7 nM

B12: h1E9-5-IgG-HC-FLAG-HIS × h1E9-LC1 IgG (antibody)
heavy: not shown
light: MDIQLTQSPSSLSASVGDRVTITCRASESVDNSGISFMSWYQQKPGKAPKLLIYTASNQGSGVPSRFSGSGSGTDFTFTISSLQPEDIATYYCQQSKEVPWTFGQGTKVEIKRTVAAPSVFIFPPSDEQLKSGTASVVCLLNNFYPREAKVQWKVDNALQSGNSQESVTEQDSKDSTYSLSSTLTLSKADYEKHKVYACEVTHQGLSSPVTKSFNRGEC
notes: also called h1E9-5 HC × h1E9-LC1
Kd [2]: 3.7 nM | Kd [3]: 9 nM | Kd [4]: 4 nM
